These results are taken from article PMC9473479.

Values joined by “and” are separate entries in the source; they are usually repeats but may differ in a detail not shown here. Equal values may be shown once.

The target in assay [1] is S40-H StrepII-tagged at its C-terminus (murine SPD scaffold carrying EsxH in the collagen-like region, CRD replaced by the murine CD40L 115-260 ectodomain) (Mus musculus | Mycobacterium tuberculosis | murine) (UniProt P27548). Nature of the assay: non-reducing SDS-PAGE and Western blot. For orientation: A western blot detects proteins with antibodies after separation by electrophoresis.

Assay [2] has the same target. Nature of the assay: SEC; 50x-concentrated supernatant of LV::S40-H-StrepII-transduced HEK293T cells on Superose 6 HR 10/30, 50 mM phosphate buffer pH 7.5, 150 mM NaCl; calibrated with standard proteins; fractions analysed by Western blot in reducing conditions. In general terms: Size exclusion chromatography separates by hydrodynamic size, large species first.

As to “S40-H StrepII-tagged at its C-terminus (murine SPD scaffold carrying EsxH in the collagen-like region, CRD replaced by the murine CD40L 115-260 ectodomain) (from UniProt P27548 115-260)”, the stoichiometry N (commonly a count of units in the complex or per binding partner) in assay [1] was 2 and 4 and 3; in assay [2] it was 2 and 3 and 4.
